{"source": "paper PMC4715488", "origin": "cited, not measured here", "target": "GPP130 (Homo sapiens) (UniProt O00461)", "sequence (O00461 2-696)": "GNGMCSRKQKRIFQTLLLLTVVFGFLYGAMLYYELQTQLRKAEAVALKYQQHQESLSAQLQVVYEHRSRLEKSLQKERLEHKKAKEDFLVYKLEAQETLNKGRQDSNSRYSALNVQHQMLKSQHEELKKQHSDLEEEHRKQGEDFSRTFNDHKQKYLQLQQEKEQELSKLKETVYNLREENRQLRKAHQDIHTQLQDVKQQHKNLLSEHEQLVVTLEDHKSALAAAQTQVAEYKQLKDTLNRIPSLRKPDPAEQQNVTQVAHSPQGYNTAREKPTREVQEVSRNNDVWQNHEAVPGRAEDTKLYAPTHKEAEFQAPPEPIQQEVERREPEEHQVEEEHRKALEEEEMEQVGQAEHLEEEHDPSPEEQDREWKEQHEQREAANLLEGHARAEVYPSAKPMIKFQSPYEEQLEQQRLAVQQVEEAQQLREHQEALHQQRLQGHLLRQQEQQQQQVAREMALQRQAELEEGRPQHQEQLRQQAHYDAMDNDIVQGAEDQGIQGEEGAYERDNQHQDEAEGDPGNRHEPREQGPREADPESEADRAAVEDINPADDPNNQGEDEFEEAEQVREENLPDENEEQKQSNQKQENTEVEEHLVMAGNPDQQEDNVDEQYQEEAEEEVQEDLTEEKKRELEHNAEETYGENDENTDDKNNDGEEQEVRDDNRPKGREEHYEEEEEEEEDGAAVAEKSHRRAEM", "note": "pKd: −log10 of the molar value.", "data": [{"substance": "Shiga toxin 1 B subunit (STx1B) (from UniProt Q32GM0)", "values": [{"measurement": "pKd", "result": 6.82}]}]}
